Source: the supplement of paper PMC9732359
± gives the uncertainty stated by the source.

Assay: protein stability index of a GFP-peptide fusion (yeast GPS) (PSI 1-4); higher = more stable; sorted into four equal gates, so the index is relative within each strain
Summary of the method: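 Tiled yeast protein peptides of 17 residues were each joined downstream of GFP, on plasmids that also express Cherry. The pooled library was maintained in yeast, and mid-log cultures in leucine-free medium were sorted into four equal gates on the GFP/Cherry ratio. Plasmids from every gate were amplified by PCR and sequenced on Illumina, with barcodes linking reads to strains. The protein stability index of a peptide is its gate-number-weighted read frequency summed over the gates.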

| Sequence | protein stability index (doa10∆) | protein stability index (pdr5∆) | protein stability index (san1∆) | protein stability index (ubr1∆) |
| --- | --- | --- | --- | --- |
| LADSLDRCVDPEDPYFN [DIS3] | 3.05 ± 0.095 | 2.64 ± 0.079 | 3.35 ± 0.076 | 3.4 ± 0.059 |
| VFHDPDHSMILPSGVLS [SMC3] | 1.71 ± 0.15 | 2.08 ± 0.089 | 2.04 ± 0.13 | 2 ± 0.047 |
| DFRTRYIDIRTNNVLRK [MTW1] | 2.45 ± 0.087 | 2.86 ± 0.21 | 2.43 ± 0.27 | 2.66 ± 0.14 |
| VVDANGCVNSLISGPRN [YMR129W/POM152] | 2.86 ± 0.15 | 2.69 ± 0.12 | 2.97 ± 0.13 | 2.66 ± 0.081 |
| TLTDILEDELYHTNPGH [RPN4] | 3.04 ± 0.055 | 3.25 ± 0.049 | 3.1 ± 0.064 | 3.21 ± 0.043 |
| SNYSRTMTISHLLLGFQ [YJL039C/NUP192] | 1.82 ± 0.05 | 1.69 ± 0.044 | 1.59 ± 0.058 | 2.1 ± 0.034 |
| KGTNDEGTSISVHLIEC [YCS4] | 2.78 ± 0.094 | 2.73 ± 0.071 | 2.69 ± 0.11 | 3.2 ± 0.059 |
| KIKPYVRSFSKALDELK [LRP1] | 2.52 ± 0.04 | 2.95 ± 0.037 | 2.35 ± 0.047 | 2.68 ± 0.027 |
| PEQYSDILLNERVWNIC [AAR2] | 3.38 ± 0.12 | 3.23 ± 0.22 | 2.68 ± 0.18 | 2.99 ± 0.18 |
| QTVSNKEDAKATMENIQ [SRP54] | 2.98 ± 0.062 | 3.18 ± 0.066 | 2.91 ± 0.075 | 2.99 ± 0.056 |
| DRELNEVINQMERLDGD [SMC3] | 3.13 ± 0.086 | 3.29 ± 0.083 | 3.2 ± 0.08 | 3.1 ± 0.045 |
| DENKAGATSKPAFSFGA [YJL041W/NSP1] | 3.15 ± 0.07 | 3.32 ± 0.068 | 3.33 ± 0.048 | 3.1 ± 0.061 |
| KLNTFNLQTFTHEQWSN [SRP72] | 3 ± 0.12 | 2.83 ± 0.078 | 2.36 ± 0.076 | 2.78 ± 0.062 |
| SMENYHLLIKIIRQLSE [SRB8] | 1.71 ± 0.058 | 1.77 ± 0.064 | 2.31 ± 0.11 | 1.63 ± 0.046 |
| NDDFSEVFEFKTFNKIQ [BRR2] | 2.01 ± 0.051 | 2.06 ± 0.061 | 2.24 ± 0.083 | 2.64 ± 0.097 |
| ETLNDTIERSLIEEEVE [YCS4] | 3.42 ± 0.14 | 3.43 ± 0.082 | 3.31 ± 0.056 | 3.33 ± 0.097 |
| KKLSINSAARNIQHLLY [PRE7] | 2.68 ± 0.051 | 2.88 ± 0.062 | 2.81 ± 0.044 | 2.8 ± 0.056 |
| ILKEEFPKIDSLAQNDC [RPN5] | 3.19 ± 0.15 | 3.24 ± 0.091 | 3.22 ± 0.056 | 3.38 ± 0.065 |
| ADNGEEYLTLNDFNDLN [MED2] | 2.96 ± 0.23 | 3.3 ± 0.14 | 3.55 ± 0.12 | 3.27 ± 0.082 |
| NNIFKEFTSKIGFTIKE [SMC1] | 2.34 ± 0.054 | 2.69 ± 0.063 | 2.76 ± 0.1 | 2.7 ± 0.046 |
| KYLIKYNVFRQHTSFQE [CSI1] | 1.24 ± 0.069 | 1.2 ± 0.046 | 1.13 ± 0.14 | 1.19 ± 0.058 |
| STAIKSLVALGIDPQDL [CDC53] | 2.29 ± 0.077 | 2.67 ± 0.066 | 2.81 ± 0.053 | 2.45 ± 0.049 |
| SYRNAFTNVLTKYSDVL [YJL039C/NUP192] | 2.12 ± 0.052 | 1.72 ± 0.059 | 2.36 ± 0.066 | 2.13 ± 0.048 |
| VDDAIELALKTLSKTTD [PRE9] | 2.43 ± 0.066 | 1.92 ± 0.063 | 2.42 ± 0.074 | 2.64 ± 0.057 |
| STIPTRENGKGGQIAHI [ROX3] | 3.01 ± 0.11 | 3.17 ± 0.092 | 2.98 ± 0.052 | 2.97 ± 0.19 |
| SKTENVRRLEAQRNALN [RPT6] | 2.65 ± 0.17 | 2.91 ± 0.18 | – | 2.88 ± 0.074 |
| TTMFENTGWSCSRIIKI [RGR1] | 3.61 ± 0.2 | 3.45 ± 0.13 | 3.37 ± 0.11 | 3.51 ± 0.1 |

| Sequence | protein stability index (doa10∆) | protein stability index (pdr5∆) | protein stability index (san1∆) | protein stability index (ubr1∆) |
| --- | --- | --- | --- | --- |
| TSAIEVLVGSCAYTGTG [RPN1] | 3.06 ± 0.067 | 3.35 ± 0.062 | 3.29 ± 0.06 | 3.28 ± 0.093 |
| RNLDSATLKEIKSIIEQ [SMC3] | 3.25 ± 0.078 | 3.51 ± 0.087 | 3.2 ± 0.066 | 3.21 ± 0.068 |
| DSVEFIFQAKRNSNPEN [RPN10] | 2.75 ± 0.087 | 2.73 ± 0.089 | 3.2 ± 0.12 | 2.69 ± 0.083 |
| HGMDFTTDKLRSMVRKW [RPS1A] | 2.42 ± 0.1 | 2.55 ± 0.1 | 2.48 ± 0.19 | 2.9 ± 0.064 |
| KEDHPLEFYKDKFFNEV [SIR3] | 3.21 ± 0.086 | 3.2 ± 0.05 | 3.34 ± 0.055 | 3.43 ± 0.084 |
| NAASQQPTPRSASNTAK [GAL11] | 2.84 ± 0.082 | 2.68 ± 0.055 | 2.78 ± 0.049 | 2.67 ± 0.039 |
| AGFDPRDDEPKLYQTEP [PRE6] | 3.24 ± 0.084 | 3.03 ± 0.12 | 3.1 ± 0.05 | 3.24 ± 0.07 |
| NFSNVTDLTNNSTDGAK [YIL149C/MLP2] | 2.82 ± 0.041 | 3.15 ± 0.046 | 3.41 ± 0.035 | 2.85 ± 0.034 |
| VLKKKNIQKKQPAKEKG [RRP6] | 3 ± 0.085 | 3.03 ± 0.067 | 3.09 ± 0.042 | 3.22 ± 0.044 |
| NNKITQLIAKNVANVSG [SIR3] | 1.7 ± 0.067 | 1.88 ± 0.063 | 2.07 ± 0.094 | 2.35 ± 0.054 |
| ALLGDKIYNFGELLHHP [RPN9] | – | – | 2.36 ± 0.29 | – |
| DLENKFNRLKKQAHEKL [YIL149C/MLP2] | 2.75 ± 0.11 | 2.71 ± 0.067 | 2.3 ± 0.17 | 2.81 ± 0.063 |
| YDPIKRIDAFNALEHKY [SSN3] | 2.83 ± 0.058 | 2.85 ± 0.041 | 2.73 ± 0.05 | 2.77 ± 0.043 |
| VVGTETRVNAQLESYEY [RRI1] | 2.72 ± 0.18 | 1.65 ± 0.11 | 3.33 ± 0.1 | 2.26 ± 0.1 |
| DTEMKMKSLLTELSNKE [YIL149C/MLP2] | 3.31 ± 0.065 | 3.44 ± 0.058 | 3.21 ± 0.045 | 3.35 ± 0.049 |
| DIYMHDVNSASKSESDS [RRP4] | 3.59 ± 0.12 | 3.48 ± 0.1 | 3.15 ± 0.098 | 3.22 ± 0.066 |
| SHNFQNAIFQMESEEVP [PCI8] | 2.85 ± 0.059 | 3.07 ± 0.068 | 2.7 ± 0.049 | 3.07 ± 0.05 |
| QQLNKQRQDFERVRLRP [SNF6] | 2.85 ± 0.062 | 2.73 ± 0.079 | 2.75 ± 0.069 | 2.79 ± 0.045 |
| GDTVQFAEYIQANIQLY [PRE1] | 2.11 ± 0.065 | 2.31 ± 0.063 | 2.2 ± 0.064 | 2.04 ± 0.053 |
| FNLNLPPSSFGRSHTRN [REC8] | 3.35 ± 0.11 | 2.51 ± 0.1 | 3.04 ± 0.058 | 3.27 ± 0.19 |
| GIVETNRPDNKNAQYHL [RPN7] | 3.17 ± 0.11 | 3.21 ± 0.13 | 3.4 ± 0.069 | 3.06 ± 0.054 |
| RYSNLVCKKADVDLHKR [RPS18A] | 3.05 ± 0.092 | 3.38 ± 0.096 | 3.58 ± 0.13 | 2.95 ± 0.083 |
| KNESATINEMMKHLGRS [FAS2] | 2.6 ± 0.082 | 2.87 ± 0.087 | 2.65 ± 0.062 | 2.81 ± 0.095 |
| VFYAELNEFFTRELAEE [RPS3] | 3.16 ± 0.13 | 3.24 ± 0.16 | 3.26 ± 0.09 | 3.28 ± 0.082 |
| FLEKEKQLTLLRSKLFQ [SMC4] | 2.46 ± 0.094 | 1.99 ± 0.067 | 1.86 ± 0.12 | 2.56 ± 0.043 |
| SGTTNFMRNGLLEGLNE [UBP6] | 2.73 ± 0.21 | 2.87 ± 0.14 | 3.22 ± 0.17 | 3.45 ± 0.23 |
| VSEDLLDERGHEKIEDE [RPN4] | 3.36 ± 0.1 | 3.53 ± 0.15 | 3.71 ± 0.08 | 3.45 ± 0.11 |
